Laboratory results reported in paper PMC2854237 (Insect biochemistry and molecular biology, 2010).
Read-outs that look alike come from different tables or passages of the source. Blank lines part the entries; values can stand above or below the molecule they belong to.

Experiments:
[1] = target: D. melanogaster ovulin (Acp26Aa), endogenous in male accessory glands (D. melanogaster (endogenous in male accessory glands)); test: non-reducing SDS-PAGE and Western blot of SDS-stable complexes
[2] = target: D. melanogaster ovulin (Acp26Aa), endogenous in male accessory glands (D. melanogaster (endogenous in male accessory glands)); test: as above; remark: listed apart in the source
[3] = target: D. pseudoobscura ovulin C-terminal fragment, 6xHis-tagged (D. pseudoobscura); test: cross-linking
[4] = target: D. yakuba ovulin C-terminal fragment, 6xHis-tagged (D. yakuba); test: cross-linking
cross-linking = target: the molecule itself; test: cross-linking
[5] = target: the molecule itself; test: non-reducing SDS-PAGE and Western blot of SDS-stable complexes

Molecule: D. yakuba ovulin C-terminal fragment, 6xHis-tagged (domain or fragment)
- stoichiometry N [4]: 2

B1: D. simulans ovulin C-terminal fragment, 6xHis-tagged (domain or fragment, UniProt P33737 156-255, looked up)
chain: RQLNIDLELELEALKRKLSEMNAQNARKPTKSCKKRPSKDIAPPANQLQEVIVKNTYRNKYLTLLTQLAQKINYEIANVNNPATDVPTGKSPSEGNPSTT
- stoichiometry N (cross-linking): 2

B2: D. simulans ovulin (putative ortholog), endogenous in male accessory glands (natural protein, UniProt P33737 19-255, looked up)
chain: NCDGEHQLDSSMDLKSDSTKSAVLKNVAPKNDATQAEIAKDDVALKSGKKGDYVMDIDVCTMPLDDYPINNSKSRKNSSTLPSQILTDKPNQGSNQIALKALKHRLLMEQNNNLFLRNHSVSLMNEIEARKTDIIQARQLNIDLELELEALKRKLSEMNAQNARKPTKSCKKRPSKDIAPPANQLQEVIVKNTYRNKYLTLLTQLAQKINYEIANVNNPATDVPTGKSPSEGNPSTT
- stoichiometry N [5]: 2

Molecule: NVRNTYRNKYLTLLKELSQKINNEIAKVATDVPTETNPSQGNLPTL (domain or fragment, UniProt P10333 219-264, looked up) [Wild-type D. melanogaster ovulin C45 (C-terminal fragment), 6xHis- and Xpress-tagged]
- stoichiometry N (cross-linking): 2

Other lines, results leading:

- stoichiometry N [1]: 2
- stoichiometry N [2]: 2
Molecule: D. melanogaster ovulin (Acp26Aa), endogenous in male accessory glands (natural protein)

- stoichiometry N [3]: 2
Molecule: D. pseudoobscura ovulin C-terminal fragment, 6xHis-tagged (domain or fragment)
